This is an account of results in paper doi:10.1101/851261.

Assay [1] deals with AjKissR2 (Apostichopus japonicus). Nature of the assay: flow cytometry on cells. A general note: A flow cytometer gives signals particle by particle.
Assay [2] deals with AjKissR1 (Apostichopus japonicus). Nature of the assay: flow cytometry on cells.

Consider AjKiss1a (peptide), for which, in assay [1], the half-maximal inhibitory concentration (IC50) (in general, the concentration that gives 50% inhibition) was 95.2 nM.
For the substance AjKiss1b (peptide), the IC50 in assay [2] worked out at 353 nM.
